12 molecules from patent publication US20110229463A1 (SYMPHOGEN A S, published 2011) can be followed below.

Residue numbers refer to the chain shown, from its start.

Assay [1] deals with T1, recombinant human EGFR extracellular domain with 6xHis (human, UniProt P00533 25-645).
T1 construct: In-house protein; also called 6xHis EGFR ECD; soluble human EGFR ECD; not shown: 6xHis tag
The experiment in a line: SPR (BIAcore 2000): IgG captured by anti-human Fc, soluble EGFR ECD injected. The protocol:
Kinetic analysis of the full length IgG antibodies of the invention was performed on a BIAcore 2000, employing an assay as described in (Canziani, Klakamp, et al. 2004, Anal. Biochem, 325:301-307) allowing measurement of monovalent affinities of whole IgG molecules against soluble antigen. […] The chip surface was regenerated in between cycles by stripping the captured antibody/antigen complexes with a 10 second injection of 100 mM H₃PO₄. […] The association rate constant (ka) and dissociation constant (kd) were evaluated globally from the generated sensograms with the BIA evaluation software 4.1 provided by the manufacturer.

The target in assay [2] is T1, recombinant human EGFR extracellular …. In words: SPR; EGFR ECD saturated with mix N=6: 1261+1347+992+1024+1030+1361. The procedure:
SPR analysis was performed on a Biacore 3000 machine containing four flow cells. A CM5 Biacore chip was conjugated with 10,000 Resonance units (Ru) polyclonal anti-His antibody to flow cells 1-4 according to the manufacturer's instructions. […] Immediately after antigen injection the maximal binding of the Anti-EGFR mAb without competition was established in each flow cell during a reference run. Briefly 5 μl antibody at a concentration of 40 μg/ml was injected over all flow cells with captured EGFR followed by stripping of the antibody/antigen complex with a low pH acid wash (10 sec. contact time with 10 mM Glycine-HCl, pH2). After the determination of Anti-EGFR antibody maximal binding to each flow cell, a competition run was performed during the same Biacore cycle. Flow cells were first saturated with EGFR ECD antigen followed by injection of different reference antibodies or Anti-EGFR antibodies into separate flow cells using the same antigen saturating conditions as outlined above. This step was immediately followed by a second injection of Anti-EGFR antibody over the flow cell saturated with EGFR antigen and competition antibody to minimize the dissociation of either antigen or blocking antibody. Then the antibody/antigen complexes were stripped off with a low pH acid wash (10 sec. contact time with 10 mM Glycine-HCl, pH 2) and the whole cycle beginning with the reference run was repeated with a new Anti-EGFR antibody. The degree of inhibition of tested Anti-EGFR antibodies were determined by comparing the Ru max value of the individual Anti-EGFR antibody before and after competition by introduction of report points recorded two seconds before and after injection of each sample.

The target in assay [3] is T2, Wild type full length EGFR purified from A431 cells (human, UniProt P00533 25-1210).
T2 construct: mature; purified from cells and coated on ELISA wells; also called purified full length EGFR; Sigma E3641
The experiment in a line: indirect ELISA, Fab on coated purified full length EGFR, anti-human Fab HRP.

Assay [4] concerns the target T3, EGFR-Fc (recombinant EGFR ECD-Fc chimera, R&D Systems 344-ER) (human, UniProt P00533 25-645).
T3 construct: Bought; also called immobilized Human EGFR ECD; not shown: Human IgG Fc
In words: SPR (Biacore 2000): EGFR ECD-Fc immobilised on CM5, Fab injected. The procedure:
To investigate possible differences in antigen presentation between EGFR ECD presented in soluble and immobilized form, a new affinity measurement on an immobilized chimeric EGFR receptor antigen termed EGFR-Fc (R&D Systems, 344-ER), consisting of Human EGFR ECD fused to Human IgG Fc was performed.

Assay [5] addresses T3, EGFR-Fc (recombinant EGFR ECD-Fc …). The experiment in a line: SPR, Fab on immobilised EGFR ECD-Fc against IgG with soluble EGFR ECD.
Assay [6] has as its target T4, human EGFR expressed on cells (human, UniProt P00533 25-1210).
T4 construct: whole, on cells; also called EGFR on A431-NS cells; full length Human EGFR on transfected CHO cells
The experiment in a line: cell ELISA on A431-NS cells (Fab ED50) against SPR KD.

The target in assay [7] is T2, Wild type full length EGFR purified …. The experiment in a line: ELISA: antibody titrated on coated full length EGFR, then biotinylated EGF (blocked ligand), streptavidin-HRP. The protocol:
The next morning wells were washed twice with PBS-T and blocked for one hour with 150 μl PBS-T-1% BSA at room temperature, followed by wash twice in PBS-T. Next 80 μl of serially diluted Anti-EGFR antibodies and control antibodies were added to wells and incubated 30 min at room temperature. […] Subsequently wells were washed five times with PBS-T, followed by incubation with 100 μl/well Streptavidin-HRP secondary reagent diluted 1:1000 in blocking buffer and incubation at room temperature for 30 min. Finally wells were washed five times with PBS-T and plates were developed by adding 100 μL/well TMB substrate and incubated for 60 min. After incubation the reaction was stopped by addition of 1 M H₂SO₄; 100 μl/well and plates were read at OD 450 nm.

B1: antibody 1254 (antibody, human IgG1, kappa, V domains shown)
VH: EVQLVESGGGLVKPGGSLKLSCAASGFAYSTYDMSWVRQTPEKRLEWVAYISSGGDAAYYPDTVKGRFTISRDNAKNTLYLQMSSLKSEDTAMYYCARSRYGNYGDAMDYWGQGTSVTVSS
VL: DVVMTQTPLSLPVSLGDQASISCRSSQSLVHSNGNTYLHWYLQKPGQSPKLLLYKVSNRFSGVPDRFSGSGSGTDFTLKISRVESEDLGVYFCSQNTHVYTFGGGTKLEIKR
notes: Chimeric mouse/human IgG1 kappa; also called mAb 1254
Regarding B1, in assay [1], the t1/2 was 11.3 min.

B2: antibody 1030 (antibody, human IgG1, kappa, V domains shown)
VH: EVQLVESGGGLVKPGGSLKLSCAASGFTFSSYALSWVRQTPERRLEWVASISGVGSTYFPDSVKGRFTMSRDNARNILYLQMSSLRSEDTAMYYCARGSDGYFYAMDYWGQGTSVTVSS
VL: DIVLTQSPASLAVSLGQRATISCRASKSVSTSGYSFMHWYQLKPGQPPKLLIYLASNLESGVPARFSGSGSGTDFTLNIHPVEEEDAATYYCQHSREFPLTFGGGTKLEIKR
notes: Chimeric mouse/human IgG1 kappa
Take B2: in assay [1], the t1/2 was 31.1 min. Also, in assay [2], the “Inhibition Sample mAb” value was determined as 87%.

B3: Fab fragment of antibody 1030 (Fab, V domains shown, not shown: small tags and cut ends)
VH: EVQLVESGGGLVKPGGSLKLSCAASGFTFSSYALSWVRQTPERRLEWVASISGVGSTYFPDSVKGRFTMSRDNARNILYLQMSSLRSEDTAMYYCARGSDGYFYAMDYWGQGTSVTVS
VL: B2 VL
B3: in assay [3], the “EC50 (read off the curve)” value was around 5 nM. Further, the t1/2 in assay [4] is 57.5 min. In addition, in assay [5], the “fold higher affinity against immobilized antigen as compared to soluble receptor” value is 10 fold.

B4: antibody 992 (antibody, human IgG1, kappa, V domains shown)
VH: EVQLQQPGSELVRPGASVKLSCKASGYTFTSYWMHWVKQRPGQGLEWIGNIYPGSRSTNYDEKFKSKATLTVDTSSSTAYMQLSSLTSEDSAVYYCTRNGDYYVSSGDAMDYWGQGTSVTVSS
VL: DIQMTQTTSSLSASLGDRVTISCRTSQDIGNYLNWYQQKPDGTVKLLIYYTSRLHSGVPSRFSGSGSGTDFSLTINNVEQEDVATYFCQHYNTVPPTFGGGTKLEIKR
notes: Chimeric mouse variable / human IgG1 kappa; the light chain entry includes the human kappa constant region; the end of the range is counted on the printed entry
Consider B4, for which the t1/2 in assay [1] was determined as 0.2 min. In assay [2], the “Inhibition Sample mAb” value was 116%.

B5: Fab fragment of antibody 992 (Fab, V domains shown, not shown: small tags and cut ends)
VH: EVQLQQPGSELVRPGASVKLSCKASGYTFTSYWMHWVKQRPGQGLEWIGNIYPGSRSTNYDEKFKSKATLTVDTSSSTAYMQLSSLTSEDSAVYYCTRNGDYYVSSGDAMDYWGQGTSVTVS
VL: B4 VL
As for B5, the “fold difference of the monovalent functional affinity on cells against the value tested with BIAcore” value in assay [6] came to 15 fold. In addition, the t1/2 in assay [4] was found to be 0.2 min.

B6: antibody 1284 (antibody, human IgG1, kappa, V domains shown)
VH: QVQLQQPGAELVKPGASVKLSCKASGYTFTSDWMHWMKQRPGQGLEWIGEINPSNGRSSYNEKFKSKATLTVDKSSSTAYMQLSSLTSEDSAVYYCARIGGIYVETYWGQGTLVTVSS
VL: DIVLTQSPASLAVSLGQRATISCRASQSVSTSTYSYMHWYQQKSGQPPKLLIKYASNLESGVPARFSGSGSGTDFTLNIHPVEEEDTATYYCQHSWEIPWTFGGGTKLEIKR
notes: as for B2
B6: the t1/2 in assay [1] amounted to 78.1 min.

B7: antibody 1347 (antibody, human IgG1, kappa, V domains shown)
VH: QVQLKESGPGLVAPSQSLSITCTVSGFSLTGHGVNWVRQPPGKGLEWLGMIWGDGSTDYNSTLKSRLSISKDNSKSQVFLKMNSLQTDDTARYYCARGYGYLYYFDYWGQGTTLTVSS
VL: ENVLTQSPAIMSASPGEKVTMTCRASSSVSSSYLHWYQQKSGASPKLWIYSTSNLASGVPARFSGSGSGTSYSLTVNSVETEDAATYYCHQYSGFPFTFGSGTKLELKR
notes: as for B2
Consider B7, for which the t1/2 in assay [1] worked out at 22.9 min. In assay [2], the “Inhibition Sample mAb” value worked out at 80%.

B8: antibody 1260 (antibody, human IgG1, kappa, V domains shown)
VH: QVQLKESGPGLVAPSQSLSITCTVSGFSLTTYGVHWVRQPPGKGLEWLGVIWAGGSTNYNSALMSRLSIKKDNSKSQVFLKMNSLQTDDTAMYYCARAYGYNFDYWGQGTTLTVSS
VL: DIQMTQTTSSLSASLGDRVTISCSASQGITNYLNWYQQKPDGTVKLLIYYSSSLHSGVPSRFSGSGSGTDYSLTISNLEPEDIATYYCQQYSEIPYTFGGGTKLELKR
notes: as for B2
For B8, in assay [7], the “IC50 (read off the curve)” value is around 40 ng mAb/ml. Also, the t1/2 in assay [1] came to 74.1 min.

B9: antibody 1320 (antibody, human IgG1, kappa, V domains shown)
VH: QVQLQQPGAELVKPGASMKLSCKASGYTFTNYWMHWVKQRPGQGLEWIGEINPSNGRTNYNEKFKSKATLTVDKSSSTAYMQLSSLTSEDSGVYYCAKGGNYYDYDWDYWGQGTTLTVSS
VL: B8 VL with G28D, T30S, Y50H, S51T, S53T, E93K, I94L, Y96W, L106I
notes: as for B2
Consider B9, for which the “IC50 (read off the curve)” value in assay [7] is around 20 ng mAb/ml. In addition, the t1/2 in assay [1] was 4.1 min.

B10: antibody 1024 (antibody, human IgG1, kappa, V domains shown)
VH: QVQLQQPGAELVEPGGSVKLSCKASGYTFTSHWMHWVKQRPGQGLEWIGEINPSSGRNNYNEKFKSKATLTVDKSSSTAYMQFSSLTSEDSAVYYCVRYYGYDEAMDYWGQGTSVTVSS
VL: DIVMTQAAFSNPVTLGTSASISCRSSKSLLHSNGITYLYWYLQKPGQSPQLLIYQMSNLASGVPDRFSSSGSGTDFTLRISRVEAEDVGVYYCAQNLELPYTFGGGTKLEIKR
notes: as for B2
As for B10, the t1/2 in assay [1] was found to be 2.4 min. Besides, the “Inhibition Sample mAb” value in assay [2] stood at 113%.

B11: Fab fragment of antibody 1024 (Fab, V domains shown, not shown: small tags and cut ends)
VH: QVQLQQPGAELVEPGGSVKLSCKASGYTFTSHWMHWVKQRPGQGLEWIGEINPSSGRNNYNEKFKSKATLTVDKSSSTAYMQFSSLTSEDSAVYYCVRYYGYDEAMDYWGQGTSVTVS
VL: B10 VL
With B11, in assay [4], the t1/2 turned out to be 2.3 min.

B12: antibody 1261 (antibody, human IgG1, kappa, V domains shown)
VH: EVQLVESGGGLVKPGGSLKLSCAVSGFTFSSYVMSWVRQTPEKRLEWVATITSGGRNIYYLDSVKGRFTISRDNAKNTLYLQMSSLRSEDTAMYYCARHEDYRYDGYYAMDYWGQGTSVTVSS
VL: QIVLTQSPAIMSASPGEKVTITCSASSSVSYMHWFQQKPGTSPKLWIYSTSNLASGVPARFSGSGSGTSYSLTISRMEAEDAATYYCQQRSSYPYTFGGGTKLELKR
notes: as for B2
With B12, in assay [1], the t1/2 was 3.6 min. In addition, the “Inhibition Sample mAb” value in assay [2] came out at 95%.
